Measured values: article PMC5567343, “Flow-induced elongation of von Willebrand factor precedes tension-dependent activation” (Nature Communications, 2017)

Experiments:
Conditions in all cases: both partners purified
[1] = molecular target: T1, Recombinant human von Willebrand factor concatemers, labeled with biotin and Alexa Fluor 488 (human, UniProt P04275 764-2813, biotin (~0.3 per monomer, from Sulfo-NHS-LC-Biotin); Alexa Fluor 488 (0.67 fluorophore/monomer)); experiment: two-colour single-molecule TIRF imaging under flow; as a1 but 10 mM NaCl; combined fit of the two highest force bins, tension 40-56 pN; apparent kon and koff, KD = koff/kon
T1 construct: Disulfide-linked concatemers of varying length; held on the flow-chamber wall through biotin and Traptavidin; also called VWF; VWF concatemer; source: Chinese hamster ovary cells, furin-treated, purified to >99% (Baxter BioScience); labeled, Sepharose CL-2B gel filtration, fraction 1; copies: ~20-200

[2] = molecular target: T1, Recombinant human von Willebrand factor …; experiment: two-colour single-molecule TIRF imaging under flow; as a1; 150 mM NaCl; combined fit of the two highest force bins, tension 40-56 pN, where activation by force is maximal; apparent kon and koff, KD = koff/kon
[3] = molecular target: T1, Recombinant human von Willebrand factor …; experiment: two-colour single-molecule TIRF imaging under flow; as a1; 150 mM NaCl; VWF regions at average tension 44 ± 2.3 pN; apparent kon and koff, KD = koff/kon
[4] = molecular target: T1, Recombinant human von Willebrand factor …; experiment: two-colour single-molecule TIRF imaging under flow; as a1 but 10 mM NaCl; VWF regions at average tension 20 ± 2.3 pN; apparent kon and koff, KD = koff/kon
[5] = molecular target: T1, Recombinant human von Willebrand factor …; experiment: two-colour single-molecule TIRF imaging under flow; as a1 but 10 mM NaCl; VWF regions at average tension 12 ± 2.2 pN; apparent kon and koff, KD = koff/kon
[6] = molecular target: T1, Recombinant human von Willebrand factor …; experiment: two-colour single-molecule TIRF imaging under flow; biotin/Alexa 488-VWF tethered to Traptavidin on the chamber wall, Alexa 647-GPIbα in solution at five concentrations; association kinetics after shift from 0 to 1280 dyn cm^-2; 150 mM NaCl, 20 mM HEPES pH 7.4, 0.02% Tween 20; VWF regions at average tension 12 ± 2.2 pN; apparent kon and koff, 1:1 fit, KD = koff/kon
[7] = molecular target: T1, Recombinant human von Willebrand factor …; experiment: two-colour single-molecule TIRF imaging under flow; as a1; 150 mM NaCl; VWF regions at average tension 28 ± 2.3 pN; apparent kon and koff, KD = koff/kon
[8] = molecular target: T1, Recombinant human von Willebrand factor …; experiment: two-colour single-molecule TIRF imaging under flow; as a1 but 10 mM NaCl; VWF regions at average tension 44 ± 2.3 pN; apparent kon and koff, KD = koff/kon
[9] = molecular target: T1, Recombinant human von Willebrand factor …; experiment: two-colour single-molecule TIRF imaging under flow; as a1; 150 mM NaCl; VWF regions at average tension 20 ± 2.3 pN; apparent kon and koff, KD = koff/kon
[10] = molecular target: T1, Recombinant human von Willebrand factor …; experiment: two-colour single-molecule TIRF imaging under flow; dissociation of GPIbα after flow cessation from 1280 to 0 dyn cm^-2, 57 fps, 20 concatemers, three flow cycles each; 100 nM GPIbα, 150 mM NaCl
[11] = molecular target: T1, Recombinant human von Willebrand factor …; experiment: two-colour single-molecule TIRF imaging under flow; as a1 but 10 mM NaCl; VWF regions at average tension 52 ± 2.3 pN; apparent kon and koff, KD = koff/kon
[12] = molecular target: T1, Recombinant human von Willebrand factor …; experiment: two-colour single-molecule TIRF imaging under flow; as a1; 150 mM NaCl; VWF regions at average tension 52 ± 2.3 pN; apparent kon and koff, KD = koff/kon
[13] = molecular target: T1, Recombinant human von Willebrand factor …; experiment: two-colour single-molecule TIRF imaging under flow; as a1; 150 mM NaCl; VWF regions at average tension 36 ± 2.3 pN; apparent kon and koff, KD = koff/kon
[14] = molecular target: T1, Recombinant human von Willebrand factor …; experiment: two-colour single-molecule TIRF imaging under flow; as a1 but 10 mM NaCl; VWF regions at average tension 28 ± 2.3 pN; apparent kon and koff, KD = koff/kon
[15] = molecular target: T1, Recombinant human von Willebrand factor …; experiment: two-colour single-molecule TIRF imaging under flow; as a1 but 10 mM NaCl; VWF regions at average tension 36 ± 2.3 pN; apparent kon and koff, KD = koff/kon

B1: Wild-type human platelet GPIbα (His1 to Arg290), Alexa Fluor 647-labeled (domain or fragment, UniProt P07359 17-306, looked up)
chain: HPICEVSKVASHLEVNCDKRNLTALPPDLPKDTTILHLSENLLYTFSLATLMPYTRLTQLNLDRCELTKLQVDGTLPVLGTLDLSHNQLQSLPLLGQTLPALTVLDVSFNRLTSLPLGALRGLGELQELYLKGNELKTLPPGLLTPTPKLEKLSLANNNLTELPAGLLNGLENLDTLLLQENSLYTIPKGFFGSHLLPFAFLHGNPWLCNCEILYFRRWLQDNAENVYVWKQGVDVKAMTSNVASVQCDNSDKFPVYKYPGKGCPTLGDEGDTDLYDYYPEEDTEGDKVR
modifications: Alexa Fluor 647 (NHS ester; fluorophore:GPIbα 1.01:1)
notes: platelet glycoprotein Ib alpha chain, human, wild type, His1 to Arg290; also called GPIα-Alexa Fluor 647; source: HEK293T, transiently transfected, culture supernatant, purified (Ni-NTA, Superdex 200 SEC)
[1]
  Kd: 0.6 nM
  koff: 0.3 s⁻¹
  kon: 5.38e+08 M⁻¹ s⁻¹
[2]
  Kd: 78 nM
  koff: 3.9 s⁻¹
  kon: 5e+07 M⁻¹ s⁻¹
[3]
  Kd: 85 nM
  koff: 4.2 s⁻¹
  kon: 4.9e+07 M⁻¹ s⁻¹
[4]
  Kd: 4.1 nM
  koff: 1.1 s⁻¹
  kon: 2.61e+08 M⁻¹ s⁻¹
[5]
  Kd: 5.3 nM
  koff: 1.1 s⁻¹
  kon: 2.13e+08 M⁻¹ s⁻¹
[6]
  Kd: 18000 nM
  koff: 2.3 s⁻¹
  kon: 100000 M⁻¹ s⁻¹
[7]
  Kd: 102 nM
  koff: 3.5 s⁻¹
  kon: 3.5e+07 M⁻¹ s⁻¹
[8]
  Kd: 0.6 nM
  koff: 0.3 s⁻¹
  kon: 5.38e+08 M⁻¹ s⁻¹
[9]
  Kd: 290 nM
  koff: 3.8 s⁻¹
  kon: 1.3e+07 M⁻¹ s⁻¹
[10]
  koff: ≥ 23 s⁻¹
[11]
  Kd: 0.6 nM
  koff: 0.3 s⁻¹
  kon: 5.38e+08 M⁻¹ s⁻¹
[12]
  Kd: 71 nM
  koff: 3.6 s⁻¹
  kon: 5.1e+07 M⁻¹ s⁻¹
[13]
  Kd: 68 nM
  koff: 3.3 s⁻¹
  kon: 4.9e+07 M⁻¹ s⁻¹
[14]
  Kd: 1.1 nM
  koff: 0.5 s⁻¹
  kon: 4.65e+08 M⁻¹ s⁻¹
[15]
  Kd: 0.8 nM
  koff: 0.4 s⁻¹
  kon: 5.08e+08 M⁻¹ s⁻¹
